These results are taken from patent publication US20220213153A1 (University of Washington, published 2022).

For one assay, the target named is T1, D2_Wm-01B.
T1 construct: De novo designed component of the two-component D2 dihedral ring D2_Wm-01; untagged (only one component carries the 6xHis tag); also called component B of D2_Wm-01; D2-1
T1 chain: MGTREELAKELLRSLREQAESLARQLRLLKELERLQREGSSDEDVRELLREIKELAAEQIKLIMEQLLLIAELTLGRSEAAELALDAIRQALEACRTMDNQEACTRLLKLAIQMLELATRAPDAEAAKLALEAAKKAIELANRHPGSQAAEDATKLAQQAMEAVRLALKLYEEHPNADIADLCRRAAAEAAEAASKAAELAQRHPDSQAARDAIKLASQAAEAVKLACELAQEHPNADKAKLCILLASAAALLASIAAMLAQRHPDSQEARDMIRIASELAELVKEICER
Kind of assay: Ni-NTA pulldown of bicistronically co-expressed components (one His-tagged), SDS-PAGE, SEC, SAXS.

The target in another assay is T2, D2_Wm-01_truncB.
T2 construct: D2_Wm-01B with one heptad deleted from the homodimer helices; also called component B of D2_Wm-01_trunc; D2-1_trunc
T2 chain: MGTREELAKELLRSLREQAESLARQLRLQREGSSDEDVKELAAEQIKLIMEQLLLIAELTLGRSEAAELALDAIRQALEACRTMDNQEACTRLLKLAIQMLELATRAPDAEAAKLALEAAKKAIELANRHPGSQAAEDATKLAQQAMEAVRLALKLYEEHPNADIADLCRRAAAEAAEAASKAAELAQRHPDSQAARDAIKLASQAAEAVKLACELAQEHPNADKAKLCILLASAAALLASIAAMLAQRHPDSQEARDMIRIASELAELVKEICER
Kind of assay: SEC and negative-stain EM of the two-component ring.

The next assay concerns the target T3, D2_Wm-02B.
T3 construct: De novo designed component of the two-component D2 dihedral ring D2_Wm-02; also called component B of D2_Wm-02; D2-2
T3 chain: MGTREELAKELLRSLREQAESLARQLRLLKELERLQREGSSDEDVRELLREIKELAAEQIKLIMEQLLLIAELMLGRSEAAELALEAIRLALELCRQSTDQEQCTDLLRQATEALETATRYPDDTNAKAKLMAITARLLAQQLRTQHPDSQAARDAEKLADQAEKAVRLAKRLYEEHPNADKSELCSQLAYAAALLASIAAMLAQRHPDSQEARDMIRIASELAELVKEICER
Kind of assay: Ni-NTA pulldown of bicistronically co-expressed components (one His-tagged), SDS-PAGE, SEC, SAXS.

B1: D2_Wm-01A (designed binder)
chain: MGTREESLKEQLRSLREQAELAARLLRLLKELERLQREGSSDEDVRELLREIKELVAEIIKLIMEQLLLIAEQLLGRSEAAELALRAIRLALELCRQSTDLEECLRLLKTAIKALENALRHPDSTTAKARLMAITARLLAQQLRTQHPDSQAARDAEKLADQAERAVRLATRLYEEHPNAEISEMCSQAAYAAALMASIAAILAQRHPDSQIARDLIRLASELAEMVKRMCERGGSWGLEHHHHHH
notes: De novo designed component of the two-component D2 dihedral ring D2_Wm-01 (8 chains in all, 2 chains as the asymmetric unit); also called component A of D2_Wm-01; D2-1
For the molecule B1, the binding result with D2_Wm-01B is reported as “binds”.

B2: D2_Wm-01_truncA (designed binder)
chain: MGTREESLKEQLRSLREQAELAARLLRLQREGSSDEDVKELVAEIIKLIMEQLLLIAEQLLGRSEAAELALRAIRLALELCRQSTDLEECLRLLKTAIKALENALRHPDSTTAKARLMAITARLLAQQLRTQHPDSQAARDAEKLADQAERAVRLATRLYEEHPNAEISEMCSQAAYAAALMASIAAILAQRHPDSQIARDLIRLASELAEMVKRMCERGGSWGLEHHHHHH
notes: D2_Wm-01A with one heptad deleted from the homodimer helices; also called component A of D2_Wm-01_trunc; D2-1_trunc
On to B2, for which the binding result with D2_Wm-01_truncB is reported as “binds”.

B3: D2_Wm-02A (designed binder)
chain: MGTREEIIRELARSLAEQAELTARLERSLREQERLQREGSSDEDVRELIREQKELVREILKLIAEQILLIAELLLASTRSEAAELALRAIRNAIEACKNADNEEMCRQLMRMAQNALELATQAPDAEAAKAALRAIDLAVELASRHPGSQAADDALKLAQQAAEAVKLALDLYREHPNADIADLCRKAAKEAAEAASKAAELAQRHPDSQAARDAIKLASQAAEAVKLACELAQEHPNAEIAKMCILAASAAALMASIAAILAQRHPDSQIARDLIRLASELAEMVKRMCERGGSWGLEHHHHHH
notes: De novo designed component of the two-component D2 dihedral ring D2_Wm-02; also called component A of D2_Wm-02; D2-2
Consider B3, for which the binding result in the assay with D2_Wm-02B is on record as “binds”.
